Values quoted from earlier work as cited in US20080095848A1, “Pharmaceutical Composition For Topical Use In Form Of Xerogels Or Films And Methods For Production” (Ludwig-maximilian-University, priority 2004, published 2008).

Details: aqueous formulation, within two weeks

B1: EGF: growth factor; wound healing factor, protein unstable in aqueous formulation (protein, UniProt P01133 23-1207, looked up)
Pro-epidermal growth factor: PQHWSCPEGTLAGNGNSTCVGPAPFLIFSHGNSIFRIDTEGTNYEQLVVDAGVSVIMDFHYNEKRIYWVDLERQLLQRVFLNGSRQERVCNIEKNVSGMAINWINEEVIWSNQQEGIITVTDMKGNNSHILLSALKYPANVAVDPVERFIFWSSEVAGSLYRADLDGVGVKALLETSEKITAVSLDVLDKRLFWIQYNREGSNSLICSCDYDGGSVHISKHPTQHNLFAMSLFGDRIFYSTWKMKTIWIANKHTGKDMVRINLHSSFVPLGELKVVHPLAQPKAEDDTWEPEQKLCKLRKGNCSSTVCGQDLQSHLCMCAEGYALSRDRKYCEDVNECAFWNHGCTLGCKNTPGSYYCTCPVGFVLLPDGKRCHQLVSCPRNVSECSHDCVLTSEGPLCFCPEGSVLERDGKTCSGCSSPDNGGCSQLCVPLSPVSWECDCFPGYDLQLDEKSCAASGPQPFLLFANSQDIRHMHFDGTDYGTLLSQQMGMVYALDHDPVENKIYFAHTALKWIERANMDGSQRERLIEEGVDVPEGLAVDWIGRRFYWTDRGKSLIGRSDLNGKRSKIITKENISQPRGIAVHPMAKRLFWTDTGINPRIESSSLQGLGRLVIASSDLIWPSGITIDFLTDKLYWCDAKQSVIEMANLDGSKRRRLTQNDVGHPFAVAVFEDYVWFSDWAMPSVMRVNKRTGKDRVRLQGSMLKPSSLVVVHPLAKPGADPCLYQNGGCEHICKKRLGTAWCSCREGFMKASDGKTCLALDGHQLLAGGEVDLKNQVTPLDILSKTRVSEDNITESQHMLVAEIMVSDQDDCAPVGCSMYARCISEGEDATCQCLKGFAGDGKLCSDIDECEMGVPVCPPASSKCINTEGGYVCRCSEGYQGDGIHCLDIDECQLGEHSCGENASCTNTEGGYTCMCAGRLSEPGLICPDSTPPPHLREDDHHYSVRNSDSECPLSHDGYCLHDGVCMYIEALDKYACNCVVGYIGERCQYRDLKWWELRHAGHGQQQKVIVVAVCVVVLVMLLLLSLWGAHYYRTQKLLSKNPKNPYEESSRDVRSRRPADTEDGMSSCPQPWFVVIKEHQDLKNGGQPVAGEDGQAADGSMQPTSWRQEPQLCGMGTEQGCWIPVSSDKGSCPQVMERSFHMPSYGTQTLEGGVEKPHSLLSANPLWQQRALDPPHQMELTQ
modifications: Pro-epidermal growth factor
loss of activity: 40%
